Article PMC11564643

Legend:
[1] = target: dynamic microtubules grown from GMPCPP stabilized seeds (porcine brain tubulin) (porcine) (UniProt P02550)
[2] = target: dynamic microtubules grown from GMPCPP stabilized seeds (porcine brain tubulin) (porcine) (UniProt P02550); experiment: FRAP (TIRF microscopy on dynamic microtubules); set-up of the buckling experiment; EB3 and HSET bleached together (488 and 561 nm lasers at 100% for 50 frames), recovery followed at free tips and in antiparallel overlaps

force on a streptavidin bead coated directly with a saturating amount of biotinylated EB3 dimers, optical trap at a growing microtubule tip [1] | fluorescence recovery time at single microtubule tips (in the presence of HSET) [2] | fold slower turnover at tips in antiparallel overlaps (with HSET) against single tips [2] | Substance
0.5 pN |  |  | biotinylated EB3 dimers coupled directly to streptavidin beads (from UniProt Q9UPY8 1-281) (natural protein)
 | 6 s | 3 fold | mGFP-EB3 homodimer (from UniProt Q9UPY8 1-281) (natural protein)
